# Measurements reported in US20250152704A1 (PARAGON THERAPEUTICS, published 2025).
# Residue numbers refer to the chain shown, from its start.
# B1: Fc Fusion Molecule 22 (Fc fusion)
# chain 1: DKTHTCPPCPAPELLGGPSVFLFPPKPKDTLYITREPEVTCVVVDVSHEDPEVKFNWYVDGVEVHNAKTKPREEQYNSTYRVVSVLTVLHQDWLNGKEYKCKVSNKALPAPIEKTISKAKGQPREPQVCTLPPSRDELTKNQVSLSCAVKGFYPSDIAVEWESNGQPENNYKTTPPVLDSDGSFFLVSKLTVDKSRWQQGNVFSCSVMHEALKYHYTQKSLSLSPGGGGGSGGGGSGGGGSEVQLLESGGGLVQPGGSLRLSCAASGFTFRSFGMSWVRQAPGKGPEWVSSISGSGSDTLYADSVKGRFTISRDNSKNTLYLQMNSLRPEDTAVYYCTIGGSLSRSSQGTLVTVSS
# chain 2: DKTHTCPPCPAPELLGGPSVFLFPPKPKDTLYITREPEVTCVVVDVSHEDPEVKFNWYVDGVEVHNAKTKPREEQYNSTYRVVSVLTVLHQDWLNGKEYKCKVSNKALPAPIEKTISKAKGQPREPQVYTLPPCRDELTKNQVSLWCLVKGFYPSDIAVEWESNGQPENNYKTTPPVLDSDGSFFLYSKLTVDKSRWQQGNVFSCSVMHEALKYHYTQKSLSLSPG
# B2: Fc Fusion Molecule 41 (Fc fusion)
# chain 1: DKTHTCPPCPAPELLGGPSVFLFPPKPKDTLYITREPEVTCVVVDVSHEDPEVKFNWYVDGVEVHNAKTKPREEQYNSTYRVVSVLTVLHQDWLNGKEYKCKVSNKALPAPIEKTISKAKGQPREPQVCTLPPSRDELTKNQVSLSCAVKGFYPSDIAVEWESNGQPENNYKTTPPVLDSDGSFFLVSKLTVDKSRWQQGNVFSCSVMHEALKYHYTQKSLSLSPGGGGGSGGGGSGGGGSGGGGSGGGGSGGGGSEVQLLESGGGLVQPGGSLRLSCAASGFTFRSFGMSWVRQAPGKGPEWVSSISGSGSDTLYADSVKGRFTISRDNSKNTLYLQMNSLRPEDTAVYYCTIGGSLSRSSQGTLVTVSS
# chain 2: B1 chain 2
# B3: Fc Fusion Molecule 42 (Fc fusion)
# chain 1: DKTHTCPPCPAPELLGGPSVFLFPPKPKDTLYITREPEVTCVVVDVSHEDPEVKFNWYVDGVEVHNAKTKPREEQYNSTYRVVSVLTVLHQDWLNGKEYKCKVSNKALPAPIEKTISKAKGQPREPQVCTLPPSRDELTKNQVSLSCAVKGFYPSDIAVEWESNGQPENNYKTTPPVLDSDGSFFLVSKLTVDKSRWQQGNVFSCSVMHEALKYHYTQKSLSLSPGGGGGSGGGGSGGGGSGGGGSGGGGSGGGGSGGGGSGGGGSEVQLLESGGGLVQPGGSLRLSCAASGFTFRSFGMSWVRQAPGKGPEWVSSISGSGSDTLYADSVKGRFTISRDNSKNTLYLQMNSLRPEDTAVYYCTIGGSLSRSSQGTLVTVSS
# chain 2: B1 chain 2
# B4: Fc Fusion Molecule 43 (Fc fusion)
# chain 1: B1 chain 1 with F273A
# chain 2: B1 chain 2
# B5: Fc Fragment 1 (other)
# chain: B1 chain 2 with C134S, W146T, Y214F
# notes: Human IgG1 Fc fragment (EU 221-446) with the named substitutions already in the entry; also called Efgartigimod (Efgart); Efgartigimod without the C-terminal lysine
# B6: Fc Fragment 2 (other)
# chain: B1 chain 2 with C134S, W146T, M208L, Y214F
# notes: Human IgG1 Fc fragment; substitutions already in the entry; also called Fc195
# B7: Fc Fragment 3 (other)
# chain: B1 chain 2 with C134S, W146T
# notes: Human IgG1 Fc fragment; substitutions already in the entry; also called Fc197
# B8: Fc Fragment 10 (other)
# chain: B1 chain 2 with C134S, W146T, M208L
# notes: Human IgG1 Fc fragment; substitutions already in the entry
# B9: Fc Fragment 11 (other)
# chain: B1 chain 2 with C134S, W146T, M208L, K213H, Y214F
# notes: as for B8
# B10: Fc Fragment 12 (other)
# chain: B1 chain 2 with C134S, W146T, K213R
# notes: as for B8
# B11: Fc Fragment 13 (other)
# chain: B1 chain 2 with C134S, W146T, K213R, Y214F
# notes: as for B8
# B12: Fc Fragment 14 (other)
# chain: B1 chain 2 with C134S, W146T, M208L, K213R, Y214F
# notes: as for B8
# B13: Fc Fragment 15 (other)
# chain: B1 chain 2 with L89D, C134S, W146T, Y214F
# notes: as for B8
# B14: Fc Fragment 16 (other)
# chain: B1 chain 2 with L89D, C134S, W146T
# notes: as for B8
# B15: Fc Fragment 17 (other)
# chain: B1 chain 2 with L89D, C134S, W146T, M208L, Y214F
# notes: as for B8
# B16: Fc Fragment 18 (other)
# chain: B1 chain 2 with L89D, C134S, W146T, M208L
# notes: as for B8
# B17: Fc Fragment 19 (other)
# chain: B1 chain 2 with L89D, Q91K, C134S, W146T, Y214F
# notes: as for B8
# B18: Fc Fragment 20 (other)
# chain: B1 chain 2 with L89D, Q91K, C134S, W146T
# notes: as for B8
# Biological target: FcRn-GFP
# Experiment: cell-based or functional assay
row,Binder,Average (n = 3) Residual FcRn
1,B1,20
2,B2,31
3,B3,48
4,B4,12

# Biological target: T1, Recombinant in-house Human FcRn protein (human, UniProt P55899 24-297; P61769 21-119, limits assumed)
# T1 construct: also called huFCRN; HuFcRn
# Experiment: competitive binding ELISA, pH 6.0; competitor Efgartigimod (Fc Fragment 1)
# T1 sequence (P55899 24-297 limits assumed, chain 1 of 2): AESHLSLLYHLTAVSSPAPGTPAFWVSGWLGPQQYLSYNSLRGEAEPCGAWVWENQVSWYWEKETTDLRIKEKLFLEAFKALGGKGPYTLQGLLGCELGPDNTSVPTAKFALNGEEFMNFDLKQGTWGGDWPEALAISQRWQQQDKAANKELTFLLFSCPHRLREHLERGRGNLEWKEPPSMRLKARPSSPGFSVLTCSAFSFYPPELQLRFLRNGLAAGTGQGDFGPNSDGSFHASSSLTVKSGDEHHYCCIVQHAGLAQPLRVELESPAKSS
# T1 sequence (P61769 21-119 limits assumed, chain 2 of 2): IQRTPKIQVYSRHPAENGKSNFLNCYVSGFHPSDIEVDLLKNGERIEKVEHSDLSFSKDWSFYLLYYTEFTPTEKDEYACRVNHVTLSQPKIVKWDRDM
row,Binder,IC50 [µM]
1,B5,0.00482
2,B6,0.00409
3,B7,0.00459
4,B8,0.00503
5,B9,0.00647
6,B10,0.00373
7,B11,0.00471
8,B12,0.00385

# Biological target: T2, cynomolgus monkey FcRn (cynomolgus monkey, UniProt Q8SPV9 24-297; Q8SPW0 21-119, limits assumed)
# T2 construct: also called cynoFcRn
# Experiment: SPR, pH 6
row,Binder,Kd [µM]
1,B5,0.0397
2,B6,0.0362
3,B7,0.0289
4,B8,0.0286
5,B9,0.0386
6,B10,0.0301
7,B11,0.0417
8,B12,0.0361
9,B13,0.0608
10,B14,0.0472
11,B15,0.0621
12,B16,0.0512
13,B17,1.25
14,B18,0.372

# Biological target: T3, rat FcRn (rat, UniProt P13599 23-298; P07151 21-119, limits assumed)
# T3 sequence (looked up) 1: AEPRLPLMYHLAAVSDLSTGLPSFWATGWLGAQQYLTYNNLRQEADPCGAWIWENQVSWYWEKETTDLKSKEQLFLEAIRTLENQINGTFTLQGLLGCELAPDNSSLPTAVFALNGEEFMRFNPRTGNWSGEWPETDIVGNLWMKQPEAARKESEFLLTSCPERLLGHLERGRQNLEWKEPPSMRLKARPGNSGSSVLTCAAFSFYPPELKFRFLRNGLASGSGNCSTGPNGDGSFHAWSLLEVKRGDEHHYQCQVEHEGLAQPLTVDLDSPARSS
# T3 sequence (looked up) 2: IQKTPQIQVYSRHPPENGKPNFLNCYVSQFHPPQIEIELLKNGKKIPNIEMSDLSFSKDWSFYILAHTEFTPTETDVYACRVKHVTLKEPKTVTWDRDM
# Experiment: SPR, pH 6
row,Binder,Kd [µM]
1,B5,0.00371
2,B6,0.0035
3,B7,0.00425
4,B8,0.00349
5,B9,0.0029
6,B10,0.00541
7,B11,0.00433
8,B12,0.00394

# Biological target: T4, mouse FcRn (mouse, UniProt Q61559 22-297; P01887 21-119, limits assumed)
# T4 sequence (looked up) 1: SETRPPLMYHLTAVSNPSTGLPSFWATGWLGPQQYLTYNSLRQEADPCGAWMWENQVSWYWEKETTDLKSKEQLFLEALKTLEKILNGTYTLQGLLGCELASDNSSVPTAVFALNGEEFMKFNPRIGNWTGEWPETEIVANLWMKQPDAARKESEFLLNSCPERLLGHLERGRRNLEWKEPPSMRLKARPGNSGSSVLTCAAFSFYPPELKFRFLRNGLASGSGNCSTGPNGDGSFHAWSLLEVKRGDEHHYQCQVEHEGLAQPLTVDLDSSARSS
# T4 sequence (looked up) 2: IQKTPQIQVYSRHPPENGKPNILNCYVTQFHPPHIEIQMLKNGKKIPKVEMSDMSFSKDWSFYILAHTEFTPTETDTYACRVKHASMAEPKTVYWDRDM
# Experiment: SPR, pH 6
row,Binder,Kd [µM]
1,B5,0.000269
2,B6,0.000182
3,B7,0.000172
4,B8,0.000143
5,B9,0.000248
6,B10,0.000194
7,B11,0.0002
8,B12,0.000288

# Biological target: T1, Recombinant in-house Human FcRn protein
# Experiment: SPR, pH 6
row,Binder,Kd [µM]
1,B5,0.0088
2,B6,0.00805
3,B7,0.00674
4,B8,0.00662
5,B9,0.00841
6,B10,0.00715
7,B11,0.00953
8,B12,0.00826
9,B13,0.0764
10,B15,0.0683
11,B16,0.0587
12,B17,0.0804
13,B18,0.0517

# Biological target: T1, Recombinant in-house Human FcRn protein
# Experiment: competitive binding ELISA, pH 6.0, in triplicate; competitor IgG
row,Binder,IC50 [µM]
1,B5,0.00285
2,B6,0.00131
3,B7,0.00077
4,B9,0.00151
5,B10,0.00141
6,B11,0.00113
7,B12,0.00209
8,B13,0.0303
9,B14,0.00845
10,B15,0.0102
11,B16,0.00691
12,B17,0.00798
13,B18,0.00518

# Biological target: T2, cynomolgus monkey FcRn
# Experiment: SPR, pH 7.4
row,Binder,Kd [µM]
1,B5,1.37
2,B6,1.54
3,B7,0.948
4,B8,0.725
5,B9,1.7
6,B10,0.9
7,B11,1.37
8,B12,1.6
9,B13,1.43
10,B14,1.68
11,B15,2.19
12,B16,2.11
13,B17,1.43
14,B18,1.55

# Biological target: T3, rat FcRn
# Experiment: SPR, pH 7.4
row,Binder,Kd [µM]
1,B5,0.0123
2,B6,0.0118
3,B7,0.0149
4,B8,0.0115
5,B9,0.0147
6,B10,0.0173
7,B11,0.0162
8,B12,0.0124

# Biological target: T4, mouse FcRn
# Experiment: SPR, pH 7.4
row,Binder,Kd [µM]
1,B5,0.0028
2,B6,0.00255
3,B7,0.00238
4,B8,0.00153
5,B9,0.00405
6,B10,0.00283
7,B11,0.00273
8,B12,0.00234

# Biological target: T1, Recombinant in-house Human FcRn protein
# Experiment: SPR, pH 7.4
row,Binder,Kd [µM]
1,B5,0.239
2,B6,0.259
3,B7,0.21
4,B8,0.169
5,B9,0.269
6,B10,0.166
7,B11,0.248
8,B12,0.249
9,B13,0.291
10,B14,0.371
11,B15,0.293
12,B16,0.262
13,B17,0.252
14,B18,0.29
